The results in this text go back to PMC10629557, “Regulation of replication origin licensing by ORC phosphorylation reveals a two-step mechanism for Mcm2-7 ring closing” (Proceedings of the National Academy of Sciences of the …, 2023).

B1: FLAG-Clb5-Cdk1 (complex)
chain 1: MGENHDHEQSIKRNSMIYNENERQLCNSNLKILQNKRALSKNDSSSKQQVQDSKPRRALTDVPVNNNPLSQNKRIVAGSKAAKVRREENIRPIVSAVQKRQIYNDRTAAEQEEEEEEEGEDDDAASIVNKKRRIDAEGVSEIVGWQDLDYVEKDDTAMVAEYSAEIFAFLYRRELETLPSHNYLLDKTSKYYLRPSMRTILVDWLVEVHEKFQCYPETLFLSINLMDRFLAKNKVTMNKLQLLAVTSLFIAAKFEEVNLPKLAEYAYITDGAASKNDIKNAEMFMLTSLEFNIGWPNPLNFLRRISKADDYDPVNRNIGKFILEYAYCCHQFIHLPPSTVSAMAMYIARRMTNRNKNELWNGTLQHYSGGIDPIHDEAFQSLCIDLVKDIASSKTHLDSLILKYKKPRYGSVYFQTFKWCTSEMHSNFQNLFNLK
chain 2: not shown
notes: Clb5, S-phase B-type cyclin, S. cerevisiae; Cdk1 (Cdc28), cyclin-dependent kinase, S. cerevisiae; also called Clb5-Cdc28; source: S. cerevisiae strain ySK119, purified
B2: GST-Sic1 (natural protein, S. cerevisiae, UniProt P38634 1-284, looked up)
chain: MTPSTPPRSRGTRYLAQPSGNTSSSALMQGQKTPQKPSQNLVPVTPSTTKSFKNAPLLAPPNSNMGMTSPFNGLTSPQRSPFPKSSVKRTLFQFESHDNGTVREEQEPLGRVNRILFPTQQNVDIDAAEEEEEGEVLLPPSRPTSARQLHLSLERDEFDQTHRKKIIKDVPGTPSDKVITFELAKNWNNNSPKNDARSQESEDEEDIIINPVRVGKNPFASDELVTQEIRNERKRAMLRENPDIEDVITYVNKKGEVVEKRRLTDEEKRRFKPKALFQSRDQEH
notes: source: E. coli BL21-DE3-Rosetta (plasmid pGEX-Sic1), purified (glutathione elution)

For assay [1], the target named is T1, origin recognition complex (ORC), wild type, unphosphorylated (S. cerevisiae, UniProt P54784 1-914; P32833 1-620; P54790 1-616; P54791 1-529; P50874 1-479; P38826 …).
T1 construct: Orc1, subunit of the origin recognition complex, S. cerevisiae; Orc2, subunit of the origin recognition complex, S. cerevisiae; Orc3, subunit of the origin recognition complex, S. cerevisiae; Orc4, subunit of the origin recognition complex, S. cerevisiae; Orc5, subunit of the origin recognition complex, S. cerevisiae; Orc6, subunit of the origin recognition complex, S. cerevisiae; For the …
Put plainly: co-IP; purified proteins: 5 pmol FLAG-Clb5-Cdk1 and 10 pmol ORC in 20 uL SM buffer with 1 mM ATP, 20 min; 10 pmol GST-Sic1 added to one of two reactions for 5 min; magnetic anti-Flag beads, 3 washes, elution with 3xFLAG peptide, SDS gel. As to conditions: both partners purified.

The assay “FLAG-Clb5-Cdk1” concerns the target B1. The description is as above. The note with it: both partners purified.

FLAG-Clb5-Cdk1, sequence (P00546 whole entry): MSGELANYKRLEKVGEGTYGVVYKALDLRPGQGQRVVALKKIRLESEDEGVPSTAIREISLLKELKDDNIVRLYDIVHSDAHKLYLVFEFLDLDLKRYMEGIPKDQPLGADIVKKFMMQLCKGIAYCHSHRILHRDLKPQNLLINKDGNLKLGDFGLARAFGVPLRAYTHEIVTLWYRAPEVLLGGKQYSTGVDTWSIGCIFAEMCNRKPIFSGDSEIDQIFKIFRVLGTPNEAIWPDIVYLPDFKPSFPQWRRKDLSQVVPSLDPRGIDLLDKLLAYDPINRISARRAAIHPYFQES

For B1, in assay [1], the binding result is “binds”.

Take B2: in the assay with FLAG-Clb5-Cdk1, the binding result was “binds”.
